From article PMC7469494 (Autophagy, 2019) come the findings set out here.

Assay [1] deals with T1, tVac8 (Vac8 construct comprising residues 10–515) (S. cerevisiae, UniProt P39968 10-515).
T1 sequence (looked up): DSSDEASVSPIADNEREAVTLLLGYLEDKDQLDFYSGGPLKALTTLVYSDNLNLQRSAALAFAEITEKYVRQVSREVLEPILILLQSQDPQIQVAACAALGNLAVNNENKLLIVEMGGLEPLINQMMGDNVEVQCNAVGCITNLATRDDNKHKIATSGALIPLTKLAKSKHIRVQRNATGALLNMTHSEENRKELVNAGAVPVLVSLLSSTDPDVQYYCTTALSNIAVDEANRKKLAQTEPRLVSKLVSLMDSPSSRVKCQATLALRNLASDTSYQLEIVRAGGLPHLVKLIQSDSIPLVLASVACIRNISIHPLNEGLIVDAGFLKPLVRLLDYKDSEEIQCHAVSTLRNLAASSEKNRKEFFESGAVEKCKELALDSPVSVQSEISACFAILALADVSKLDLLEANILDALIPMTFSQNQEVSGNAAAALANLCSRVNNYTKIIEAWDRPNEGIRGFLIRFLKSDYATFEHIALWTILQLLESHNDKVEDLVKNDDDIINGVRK
Put plainly: AUC.

The target in another assay is T2, full-length Vac8 (S. cerevisiae, UniProt P39968 1-578).
T2 sequence (looked up): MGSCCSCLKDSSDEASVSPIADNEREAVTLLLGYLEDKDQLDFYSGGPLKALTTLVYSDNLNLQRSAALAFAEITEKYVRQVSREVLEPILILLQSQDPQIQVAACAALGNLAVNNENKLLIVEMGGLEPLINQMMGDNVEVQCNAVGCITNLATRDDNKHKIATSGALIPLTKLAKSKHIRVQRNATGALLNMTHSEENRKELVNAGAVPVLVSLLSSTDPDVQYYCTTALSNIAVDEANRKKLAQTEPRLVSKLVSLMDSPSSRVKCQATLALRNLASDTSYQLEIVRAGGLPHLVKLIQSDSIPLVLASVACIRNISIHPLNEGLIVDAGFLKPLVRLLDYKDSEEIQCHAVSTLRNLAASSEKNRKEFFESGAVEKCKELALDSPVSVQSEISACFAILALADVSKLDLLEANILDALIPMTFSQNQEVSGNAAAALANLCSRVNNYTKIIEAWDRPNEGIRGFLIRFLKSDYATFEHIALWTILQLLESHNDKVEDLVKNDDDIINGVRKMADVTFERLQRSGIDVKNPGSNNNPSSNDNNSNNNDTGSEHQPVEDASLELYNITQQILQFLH
In words: ITC.

Assay [2] deals with T3, Vac8[Δ19–33] (full-length Vac8 lacking the H1 helix, residues 19–33) (S. cerevisiae, UniProt P39968 1-578, Δ19–33).
T3 sequence (looked up): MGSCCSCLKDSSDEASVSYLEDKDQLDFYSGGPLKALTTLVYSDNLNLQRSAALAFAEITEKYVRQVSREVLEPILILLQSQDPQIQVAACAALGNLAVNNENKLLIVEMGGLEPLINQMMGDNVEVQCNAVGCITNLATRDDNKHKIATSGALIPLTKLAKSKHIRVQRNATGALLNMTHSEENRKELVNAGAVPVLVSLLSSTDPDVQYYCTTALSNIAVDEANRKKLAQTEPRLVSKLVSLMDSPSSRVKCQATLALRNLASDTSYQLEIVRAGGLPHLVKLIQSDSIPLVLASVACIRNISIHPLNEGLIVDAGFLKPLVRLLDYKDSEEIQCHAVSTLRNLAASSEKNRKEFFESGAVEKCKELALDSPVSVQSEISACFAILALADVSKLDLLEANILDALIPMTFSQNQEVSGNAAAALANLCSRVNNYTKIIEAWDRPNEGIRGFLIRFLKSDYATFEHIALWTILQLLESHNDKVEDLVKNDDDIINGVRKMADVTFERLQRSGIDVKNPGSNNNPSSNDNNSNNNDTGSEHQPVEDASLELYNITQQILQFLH
In words: ITC. For orientation: Isothermal titration calorimetry measures the heat released or taken up as one component is titrated into another.

The target in another assay is T4, Vac8[40–515]^N62R (S. cerevisiae, UniProt P39968 40-515, N62R).
T4 sequence (looked up): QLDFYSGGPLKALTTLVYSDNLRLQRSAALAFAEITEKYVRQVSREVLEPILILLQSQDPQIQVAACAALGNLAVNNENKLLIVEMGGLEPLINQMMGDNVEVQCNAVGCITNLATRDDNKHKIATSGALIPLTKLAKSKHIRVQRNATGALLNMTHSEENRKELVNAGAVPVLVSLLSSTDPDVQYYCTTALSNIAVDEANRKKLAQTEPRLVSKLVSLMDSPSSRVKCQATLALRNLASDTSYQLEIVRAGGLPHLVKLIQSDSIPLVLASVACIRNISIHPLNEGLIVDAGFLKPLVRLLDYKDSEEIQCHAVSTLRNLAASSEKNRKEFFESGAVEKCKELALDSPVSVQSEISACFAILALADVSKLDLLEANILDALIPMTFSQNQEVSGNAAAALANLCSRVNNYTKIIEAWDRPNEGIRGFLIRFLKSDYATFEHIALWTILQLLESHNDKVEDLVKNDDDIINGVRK
Put plainly: SEC. Background: Size exclusion chromatography separates by hydrodynamic size, large species first.

B1: tAtg13 (Atg13 construct comprising residues 567–695) (domain or fragment, S. cerevisiae, UniProt Q06628 567-695, looked up)
chain: GGNSSTSALNSRRNSLDKSSNKQGMSGLPPIFGGESTSYHHDNKIQKYNQLGVEEDDDDENDRLLNQMGNSATKFKSSISPRSIDSISSSFIKSRIPIRQPYHYSQPTTAPFQAQAKFHKPANKLIDNG
Broadly, the Kd is the free concentration of one partner at which half of the binding sites on the other are occupied at equilibrium, for simple one-to-one binding. High values mean weaker binding, low ones tighter binding. Take B1: the binding result (in assay [1]; with full-length Vac8; with Vac8[40–515]^N62R) was “binds” each time. In assay [2], this molecule came in with a Kd of 1460 nM.
